According to publication PMC7305185 (2020):
Positions count from the first letter of the chain named. Names may count otherwise.

Target: eukaryotic translation initiation factor 4E (eIF4E) (UniProt P06730 1-217)
Assay: ITC

Chain of eukaryotic translation initiation factor 4E (eIF4E) (P06730 whole entry): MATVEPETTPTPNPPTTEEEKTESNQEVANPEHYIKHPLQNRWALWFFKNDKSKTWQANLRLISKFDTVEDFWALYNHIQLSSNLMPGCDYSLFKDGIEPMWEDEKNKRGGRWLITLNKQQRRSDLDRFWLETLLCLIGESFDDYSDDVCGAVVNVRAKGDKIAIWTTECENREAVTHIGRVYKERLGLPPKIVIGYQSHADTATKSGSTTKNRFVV

B1: pT37 4E-BP2 (protein)
chain: MSSSAGSGHQPSQSRAIPTRTVAISDAAQLPHDYCTTPGGTLFSTAPGGTRIIYDRKFLLDRRNAPMAQAPPCHLPNIPGVTAPGTLIEDSKVEVNNLNNLNNHDRKHAVGDDAQFEMDI
modifications: phospho-Thr37
Kd: 7.2 nM

B2: pS65 pT70 pS83 (T37A/T46A) 4E-BP2 (protein)
chain: B1 chain with T37A, A65S, A70T, A83S
modifications: phospho-Ser65, phospho-Thr70, phospho-Ser83
Kd: 11.3 nM

B3: Non-phospho 4E-BP2 (protein)
chain: B1 chain with A46T, A65S, A70T, A83S
Kd: 3.2 nM

B4: pT46 4E-BP2 (protein)
chain: B1 chain with T37A, A46T
modifications: phospho-Thr46
Kd: 2.4 nM

B5: pT37 pT46 (Two-phospho) 4E-BP2 (protein)
chain: B1 chain with A46T
modifications: phospho-Thr37, phospho-Thr46
Kd: 267 nM

B6: G39V/G48V Five-phospho 4E-BP2 (protein)
chain: B1 chain with G39V, A46T, G48V, A65S, A70T, A83S
modifications: phospho-Thr37, phospho-Thr46, phospho-Ser65, phospho-Thr70, phospho-Ser83 (legend prints pT36, taken as a typo for pT37)
Kd: 36.1 nM
